The values that follow come from patent US20230189844.

In one series the target is Soybean agglutinin (SBA) (UniProt P05046).
Series [1] has as its target T1, Soy Bowman-Birk Inhibitor (UniProt P01055).
T1 sequence: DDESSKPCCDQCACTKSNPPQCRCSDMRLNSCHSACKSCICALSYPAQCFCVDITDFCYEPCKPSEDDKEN

The target of series [2] is T2, Soy Kunitz Inhibitor (Trypsin Inhibitor from soybean) (UniProt P01070).
T2 sequence: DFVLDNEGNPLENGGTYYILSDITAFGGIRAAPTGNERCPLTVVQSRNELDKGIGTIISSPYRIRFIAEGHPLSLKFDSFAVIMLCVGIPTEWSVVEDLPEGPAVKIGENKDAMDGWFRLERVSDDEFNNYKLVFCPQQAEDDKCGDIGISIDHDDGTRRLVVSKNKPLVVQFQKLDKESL

Sequence of Soybean agglutinin (SBA) (P05046 33-285): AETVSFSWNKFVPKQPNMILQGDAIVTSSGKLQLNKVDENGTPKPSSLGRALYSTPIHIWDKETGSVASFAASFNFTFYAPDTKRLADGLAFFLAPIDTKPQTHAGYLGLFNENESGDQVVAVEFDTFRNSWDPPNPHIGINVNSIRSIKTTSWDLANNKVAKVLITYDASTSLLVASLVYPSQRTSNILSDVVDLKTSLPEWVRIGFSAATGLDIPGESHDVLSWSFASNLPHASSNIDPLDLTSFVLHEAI

“Protease derived from Bacillus sp. NCIMB 40484”: the values for the % of anti-nutritional factor degraded (SDS-PAGE band disappearance, 2 hours, 37° C., pH 6.5) (in the series with Soybean agglutinin (SBA); in series [1]; in series [2]) were 21%, 41% and 100%, respectively.
